The target in this experiment is cortactin, endogenous in hE-CHO cells (hamster (endogenous in CHO)). Description: co-IP.

Take “human E-cadherin stably expressed in CHO cells (hE-CHO cells) (from UniProt P12830 155-882) (receptor)”: the percent of total cellular E-cadherin found in the cortactin immunoprecipitates was 1 to 2%.
